In patent US20100062001A1 (TECHNION RESEARCH AND DEVELOPMENT, published 2010):

Target: HLA-A2-G9-209 complex (as used for the affinity of 9H) (human, UniProt P61769 21-119; P40967 209-217)
Test: method not stated (data not shown)

B1: 9H scFv antibody (scFv)
scFv: EVQLLESGGGLVQPGGSLRLSCAASGFTFQYYAMSWVRQAPGKGLEWVSSINWNSGTLDYADSVKGRFTISRDNSKNTLYLQMNSLRAEDTAVYYCARYSNYGLYAMDVWGQGTLVTVSSSGGGGSGGGGSGGGGSSDIVLTQPPSASGTPGQRVTISCSGSSSNIGSNPVTWYQQLPGTAPKPLIYGDSYRPSGVPDRFSGSKSGTSASLAISGLRSEDEADYYCATWDDDVNGVIFGGGTQLTVLR
notes: also called scFv 9H; clone 9H
**Q.** B1 was tested. Which Kd did it give?
**A.** 0.5 nM
